Assay results taken from patent publication US20210032329A1 (VACCINEX, published 2021).

Columns and labels:
marmoset SEMA4D-His = target: T1, marmoset SEMA4D-His (marmoset, UniProt A0A8I3W811 22-734); experiment: BIACORE; antibody captured with goat anti-human IgG Fc, marmoset SEMA4D-His as analyte
T1 construct: also called CD100-His; not shown: His tag
T1 sequence: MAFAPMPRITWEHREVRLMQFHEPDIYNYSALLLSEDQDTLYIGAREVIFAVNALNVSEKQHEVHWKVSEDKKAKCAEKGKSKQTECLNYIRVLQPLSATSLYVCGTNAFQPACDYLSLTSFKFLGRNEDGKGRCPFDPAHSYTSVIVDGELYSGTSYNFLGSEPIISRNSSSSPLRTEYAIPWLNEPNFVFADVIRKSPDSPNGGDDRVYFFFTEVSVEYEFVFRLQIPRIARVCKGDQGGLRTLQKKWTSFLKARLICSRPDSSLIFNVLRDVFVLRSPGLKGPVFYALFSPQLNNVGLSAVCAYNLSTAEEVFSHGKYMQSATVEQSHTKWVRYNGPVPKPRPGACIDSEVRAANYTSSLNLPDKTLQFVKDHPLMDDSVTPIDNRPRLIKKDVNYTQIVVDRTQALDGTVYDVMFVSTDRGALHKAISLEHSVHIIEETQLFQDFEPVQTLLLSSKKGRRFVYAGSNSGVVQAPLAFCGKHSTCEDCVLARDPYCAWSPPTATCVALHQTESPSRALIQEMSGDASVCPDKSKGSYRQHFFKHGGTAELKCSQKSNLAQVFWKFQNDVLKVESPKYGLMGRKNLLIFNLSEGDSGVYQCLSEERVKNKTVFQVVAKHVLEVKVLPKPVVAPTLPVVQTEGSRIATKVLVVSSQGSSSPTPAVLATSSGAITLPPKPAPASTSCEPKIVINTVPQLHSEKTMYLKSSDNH
Method: The binding characteristics of MAb D2517 were determined by BIACORE assay, as follows.

human SEMA4D-His = target: T2, human SEMA4D-His (human, UniProt Q92854 22-734, limits assumed); experiment: receptor blocking; antibody dilution series pre-incubated with SEMA4D-His, binding to 293PLXNB1 cells (Plexin B1) read by flow cytometry
T2 construct: also called CD100-His; not shown: His tag, detected with anti-6xHis-APC
T2 sequence (looked up): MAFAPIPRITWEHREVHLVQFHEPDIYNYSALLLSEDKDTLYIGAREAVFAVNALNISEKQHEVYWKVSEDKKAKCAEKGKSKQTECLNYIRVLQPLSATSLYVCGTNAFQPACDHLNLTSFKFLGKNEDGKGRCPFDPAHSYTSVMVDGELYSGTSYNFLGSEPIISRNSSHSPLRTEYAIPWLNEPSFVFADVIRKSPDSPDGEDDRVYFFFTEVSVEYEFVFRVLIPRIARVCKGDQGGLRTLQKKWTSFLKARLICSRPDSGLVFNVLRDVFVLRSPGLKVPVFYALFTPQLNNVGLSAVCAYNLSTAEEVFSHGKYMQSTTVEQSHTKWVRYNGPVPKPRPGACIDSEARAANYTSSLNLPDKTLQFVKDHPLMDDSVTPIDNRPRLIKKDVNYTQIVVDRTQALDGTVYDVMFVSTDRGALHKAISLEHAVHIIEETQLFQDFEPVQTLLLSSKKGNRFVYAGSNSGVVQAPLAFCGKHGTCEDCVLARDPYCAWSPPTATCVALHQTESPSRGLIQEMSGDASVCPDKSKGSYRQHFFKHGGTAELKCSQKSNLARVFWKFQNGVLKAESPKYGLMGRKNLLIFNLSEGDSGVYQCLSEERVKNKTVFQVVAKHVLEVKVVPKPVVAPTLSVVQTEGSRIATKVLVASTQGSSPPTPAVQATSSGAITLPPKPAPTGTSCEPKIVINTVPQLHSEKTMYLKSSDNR
Method: (§1) After washing, the cells were stained with anti-6xHis-APC (30 min, 4° C.), washed and analyzed by flow cytometry on FACS Canto II.

rat SEMA4D-His = target: T3, rat SEMA4D-His (rat, UniProt A0A8I6G5Q1 23-734); experiment: as above
T3 construct: not shown: His tag, detected with anti-6xHis-APC
Method: as §1

[1] = target: T4, cynomolgus monkey SEMA4D-His (cynomolgus monkey); experiment: as above
T4 construct: also called Cyno SEMA4D
Method: as §1

mouse SEMA4D-His = target: T5, mouse SEMA4D-His (mouse, UniProt O09126 24-733, limits assumed); experiment: as above
T5 construct: not shown: His tag, detected with anti-6xHis-APC
T5 sequence (looked up): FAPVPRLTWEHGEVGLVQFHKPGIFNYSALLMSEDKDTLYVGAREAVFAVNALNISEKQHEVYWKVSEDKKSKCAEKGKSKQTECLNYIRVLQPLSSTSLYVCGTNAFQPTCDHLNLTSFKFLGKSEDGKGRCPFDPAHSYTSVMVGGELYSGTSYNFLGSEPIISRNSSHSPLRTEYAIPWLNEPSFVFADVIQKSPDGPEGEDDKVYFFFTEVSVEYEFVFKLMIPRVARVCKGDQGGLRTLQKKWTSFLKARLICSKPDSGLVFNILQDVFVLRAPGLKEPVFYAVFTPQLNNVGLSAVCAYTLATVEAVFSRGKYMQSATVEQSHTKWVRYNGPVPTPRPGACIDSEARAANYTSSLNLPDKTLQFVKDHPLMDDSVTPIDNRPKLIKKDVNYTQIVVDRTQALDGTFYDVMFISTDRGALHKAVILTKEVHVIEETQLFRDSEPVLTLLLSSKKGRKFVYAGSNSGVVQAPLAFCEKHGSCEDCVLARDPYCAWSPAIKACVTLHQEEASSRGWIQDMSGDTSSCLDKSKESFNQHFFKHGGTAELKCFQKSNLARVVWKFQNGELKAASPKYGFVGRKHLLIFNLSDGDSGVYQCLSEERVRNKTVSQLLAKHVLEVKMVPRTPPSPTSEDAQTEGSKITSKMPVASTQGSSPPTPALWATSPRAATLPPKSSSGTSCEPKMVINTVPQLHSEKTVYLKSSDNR
Method: as §1

B1: MAb D2517 (antibody, V domains shown)
VH: EVQLVESGGGLVQPGGSLRLSCAASGFIFSDYWMVWVRQAPGKGLEYVAHMNQDGGARYYAESVRGRFTISRDNAKNSLYLQMNSLRAEDTAVYYCARDPWGYDSWGQGTLVT
VL: not shown
- Ka (marmoset SEMA4D-His): 2.47e+08 M⁻¹
- Kd (marmoset SEMA4D-His): 4 nM
- koff (marmoset SEMA4D-His): 0.0032 s⁻¹
- kon (marmoset SEMA4D-His): 789000 M⁻¹ s⁻¹
- EC50 (human SEMA4D-His): 1 nM
- EC50 (rat SEMA4D-His): 1.5 nM
- EC50 [1]: 1.2 nM
- EC50 (mouse SEMA4D-His): 1.2 nM
